Experimental data published in FireProtDB (doi:10.1021/bi051266r).
“And” between values parts separate entries of the source, which are not always exact repeats. Equal entries are not always repeated.

Conditions: Saccharolobus solfataricus (strain ATCC 35092 / DSM 1617 / JCM 11322 / P2), Thermal, DSC, Glycine 10 mM, transition: 3, reversible: yes, whole UniProt chain shown

B1: DNA/RNA-binding protein Alba 2 wild type, Q97ZF4 (protein)
chain: MTEKLNEIVVRKTKNVEDHVLDVIVLFNQGIDEVILKGTGREISKAVDVYNSLKDRLGDGVQLVNVQTGSEVRDRRRISYILLRLKRVY
unfolding enthalpy (calorimetric) (pH 3.2): 20.3 kcal/mol and 42.8 kcal/mol | unfolding enthalpy (van 't Hoff) (pH 3.2): 39.1 kcal/mol and 85.5 kcal/mol | Tm (pH 4.2): 116 °C | unfolding enthalpy (calorimetric) (pH 4.2): 47.8 kcal/mol | unfolding enthalpy (van 't Hoff) (pH 4.2): 93.5 kcal/mol | unfolding enthalpy (calorimetric) (pH 4.8): 37.8 kcal/mol and 47.3 kcal/mol | unfolding enthalpy (van 't Hoff) (pH 4.8): 75.5 kcal/mol and 92.7 kcal/mol | unfolding enthalpy (calorimetric) (pH 5.6): 44.8 kcal/mol and 56.9 kcal/mol | unfolding enthalpy (van 't Hoff) (pH 5.6): 95.5 kcal/mol and 105 kcal/mol | unfolding enthalpy (calorimetric) (pH 7.1): 27 kcal/mol and 44.9 kcal/mol | unfolding enthalpy (van 't Hoff) (pH 7.1): 172 kcal/mol and 84.7 kcal/mol
